Measurements: patent CN110563849A

Target: PD-1-mFc (人PD-1胞外区加Fc纯化标签) (human) (UniProt Q15116)
Assay: ELISA of the subclone's supernatant on plate-coated PD-1 antigen

UniProt Q15116, sequence (Q15116 25-170): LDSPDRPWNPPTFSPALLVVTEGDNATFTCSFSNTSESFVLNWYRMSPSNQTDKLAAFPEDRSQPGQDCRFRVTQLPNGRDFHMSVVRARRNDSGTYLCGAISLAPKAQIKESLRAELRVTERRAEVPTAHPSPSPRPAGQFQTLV

OD值: 1.02 OD
B1: 抗PD-1鼠源单克隆抗体 (阳性克隆2G8-1N8) (antibody, V domains shown)
VH: EVKLVESGGGLVKPGGSLKLSCAASGFTFSSYGMSWVRQTPEKRLEWVATISGGGSYTYYPDSVKGRFTISRDNAKNNLYLQMSSLRSEDTALYYCASRFGEAWFAYWGQGTLVTVSA
VL: DIKMTQSPSSMYASLGERVTITCKASQDINSYLSWFQQKPGKSPKTLIYRANRLVDGVPSRFSGSGSGQDYSLTISSLEYEDMGIYYCLQYDEFPLTFGAGTKLELK
